Article PMC6407594

Substrate: NCCCNCCCCNCCCN
Test: purified protein, by the assay type
Details: other: compound as substrate, Hepes 50 mM, pH 7.5, 37 °C

B1: murine SMOX (Mus musculus) (protein)
chain: MQSCESSGDSADDPLSRGLRRRGQPRVVVIGAGLAGLAAARALLEQGFTDVTVLEASSHIGGRVQSVRLGDTTFELGATWIHGSHGNPIYQLAEANGLLEETTDGERSVGRISLYSKNGVACYLTNRGCRIPKDVVEEFSDLYNEVYNMTQEFFRHGKPVNAESQNSVGVFTREKVRNRIRDDPDDTEATKRLKLAMIQQYLKVESCESSSHSIDEVSLSAFGEWTEIPGAHHIIPSGFMRVVELLAEGIPPHVIQLGKPVRCIHWDQASAHPRGPEIEPRGEGDHNHDTGEGGQSGENPQQGRWDEDEPWPVVVECEDCEVIPADHVIVTVSLGVLKRQYTSFFRPCLPTEKVAAIHRLGIGTTDKIFLEFEEPFWGPECNSLQFVWEDEAESCTLTYPPELWYRKICGFDVLYPPERYGHVLSGWICGEEALVMERCDDEAVAEICTEMLRQFTGNPNIPKPRRILRSAWGSNPYFRGSYSYTQVGSSGADVEKLAKPLPYTESSKTAPMQVLFSGEATHRKYYSTTHGALLSGQREAARLIEMYRDLFQQGP
- Km: 495 µM
